From article PMC3496059 (Structure (London, England : 1993), 2012)

Target: NSUN4 (residues 26–384) (human, UniProt Q96CB9 26-384)
Experiment: ITC

Sequence of NSUN4 (residues 26–384) (Q96CB9 26-384): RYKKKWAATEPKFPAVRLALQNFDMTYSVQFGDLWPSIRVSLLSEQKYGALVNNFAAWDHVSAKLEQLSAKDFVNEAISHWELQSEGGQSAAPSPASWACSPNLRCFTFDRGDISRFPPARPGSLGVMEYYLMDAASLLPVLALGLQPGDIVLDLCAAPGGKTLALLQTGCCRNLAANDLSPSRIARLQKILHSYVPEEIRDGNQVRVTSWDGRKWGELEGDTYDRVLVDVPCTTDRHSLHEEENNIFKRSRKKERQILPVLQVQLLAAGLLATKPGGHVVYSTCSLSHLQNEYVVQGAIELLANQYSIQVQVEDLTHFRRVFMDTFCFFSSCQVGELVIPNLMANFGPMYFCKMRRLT

Kd: 13.3 ± 0.4 nM
dH: -11 ± 0.22 kcal/mol
stoichiometry N: 1.08 ± 0.02
B1: MTERF4 (residues 66–332) (domain or fragment, human, UniProt Q7Z6M4 66-332, looked up)
chain: EPECRRNLVQCLLEKQGTPVVQGSLELERVMSSLLDMGFSNAHINELLSVRRGASLQQLLDIISEFILLGLNPEPVCVVLKKSPQLLKLPIMQMRKRSSYLQKLGLGEGKLKRVLYCCPEIFTMRQQDINDTVRLLKEKCLFTVQQVTKILHSCPSVLREDLGQLEYKFQYAYFRMGIKHPDIVKSEYLQYSLTKIKQRHIYLERLGRYQTPDKKGQTQIPNPLLKDILRVSEAEFLARTACTSVEEFQVFKKLLAREEEESESSTS
